Holding throughout (assay type): in vivo
Experiment [1] deals with corn. The experiment in a line: Field trial: PytH Esterase corn seed treatment, yield. Particulars: 0.5 fl oz/unit on hybrid corn seed; 10 sites. The text has this: 0.5 fl oz/unit of PythH Esterase from recombinant Bacillus subtilis fermentation (SEQ ID NO:255) was coated onto Hybrid corn seeds treated with Fludioxinil fungicide, ipconazole fungicide, peridium 1006 polymer, and Sensient Red (colorant). A control treatment without esterase enzyme was also created. The seed treated with esterase and control seed was planted in replicated trials distributed across 10 replicated plots with 4 replicates of 100 ft2 each at each site.

Experiment [2] has as its system Fall armyworm (Spodoptera frugiperda). Description: Diet-surface overlay (DSO) bioassay on Fall armyworm. Particulars: number of individuals, n = 32, 7 days. The method, then: Diet-surface overlay bioassays are conducted with artificial diet mixes without antibiotics in 1.5 cm^2 cell bioassay trays(s). Artificial diets are commercially available from Southland Products Inc. Diets were prepared by dispersing 0.5 mL of molten diet to each 1.5 cm^2 cell. After solidification, 0.1 mL enzyme treatments were dispersed on top of diet in each cell and the tray was gently rocked in an orbital shaker to spread the liquid uniformly over the diet surface. Trays were placed under clean airflow until the surface of each cell was uniformly dried. One or two 16-cell sections were used per treatment (the number in larvae treated was 16 or 32).
One healthy first instar larva was placed into each treatment cell, each 16-cell section was covered with a re-sealable lid and incubated at 27° C. and light-dark period of 16:8 hrs. After 7 days, and according to the species, the number of individuals in the following developmental categories was recorded.
Negative/untreated controls were treated with filtered water and positive controls were treated with lethal doses of Bacillus thuringiensis subsp. Kurstaki (Btk) spores at 1000 ppm.

In experiment [3] the test system is Garden snails (Cornu aspersum). Description: Antifeedant and molluscicide bioassay on garden snails (diet consumption, survival, weight gain). The method, then: Two-week old garden snails (Cornu aspersum) and full-size black gloss snails (Zonitoides nitidus) were maintained in a semi-darkened tank at 68-70° F. at high humidity, provided with a wet sponge in a petri dish. Snails were transferred to fresh tank every 2-3 days, and they were feed ad libitum with cucumber slices supplemented with calcium carbonate tablets. Individuals were reared in the laboratory for at least a week to fully acclimate to laboratory conditions prior to testing. The individuals ranged between 3 weeks to 2 months old at the time of bioassay.
Filter-sterilized recombinant enzymes including proteases and lipases were prepared as indicated in Example 25. Corresponding controls (e.g., buffer, fermentation of non-recombinant strain, water) were be prepared accordingly. Enzymes were dried by mixing them with Polyvinylpyrrolidone K30 (Thermo Sci Chem, Cat #227545000) at a ratio of 60 mg PVP per mL of enzymes, dispersed on a petri dish and allowed to dry in a bio-safety hood for 24-48 hours.
The treatments were prepared by mixing 0.4 g of dry enzyme and 1 gram of artificial diet mix. The artificial diet mix consisted of flour supplemented with 30 mg sucrose per gram of flour. […]
12 snails were randomly assigned to each treatment, labeled with permanent marker on the top of the shell for identification, and their weight (mg) was recorded before treatment. […] At the time of treatment replacement, treatment consumption, weight, and mortality were recorded.
Acid protease, alkaline protease, aminopeptidase, neutral protease, and keratinase, were prepared as indicated above and their antifeedant and molluscicidal effects were tested. […] The units (U) of enzyme activity was determined as the amount of enzyme required to breakdown 1 μM of substrate per minute. […]
Lipases from Burkholderia cepacia, Pseudomonas fluorescens, porcine pancreas, type II (PPII) were prepared as described above and their antifeedant and molluscicidal effects were tested. […] The units (U) of enzyme activity was determined as the amount of enzyme required to breakdown 1 μM of substrate per minute. […]

Experiment [4] relates to corn. The experiment in a line: Greenhouse trial: Rhizopus oryzae Esterase corn seed treatment, plant height. Particulars: 0.5 fl oz/unit seed treatment, 6049 V2 hybrid corn, plant height day 10, water control = 100%. The method, then: Rhizopus oryzae Esterase (carboxylesterase, SEQ ID NO:253) was coated onto 6049 V2 hybrid corn seeds. A water only control treatment without esterase enzyme was also created. The seed treated with esterase and control seed was planted in replicated greenhouse trials on promix soil with a fluctuating day/night temperature of 78° F./75° F., and 13 hours of light daily. Plant heights were measured on day 10 for each plant emerged from the soil.

In experiment [5] the test system is soybean. The experiment in a line: Field trial: Geobacillus stearothermophilus esterase soybean seed treatment, yield. Particulars: 0.5 fl oz/unit on soybean seed; 6 sites. The text has this:
0.5 fl oz/unit of Esterase (carboxylesterase) from Geobacillus/Bacillus stearothermophilus (SEQ ID NO:252) was coated onto soybean seeds treated with Evergol Energy (prothioconazole, metalaxyl, and penflufen fungicides) at 1 fl oz/cwt, Alias 4F (imidacloprid, insecticide) at 1.25 fl oz/unit, Sensient Red (colorant) at 0.5 fl oz/cwt, and Seedwork 4037L polymer at 1.5 fl oz/cwt. A control treatment without esterase enzyme was also created. The seed treated with esterase and control seed was planted in replicated trials distributed across 6 replicated plots with 4 replicates of 60 ft2 each at each site.

Experiment [6] has as its system soybean. Description: Field trial: Feruloyl Esterase soybean seed treatment, yield. Particulars: 1 fl oz/unit on soybean seed; 5 sites. The text has this: 1 fl oz/unit of Feruloyl Esterase (SEQ ID NO:91) was coated onto soybean seeds treated with Fludioxinil fungicide, metalaxyl fungicide, thiamethoxam […], Seedwork 1037L polymer, and Sensient Red (colorant). A control treatment without esterase enzyme was also created. The seed treated with esterase and control seed was planted in replicated trials distributed across 5 replicated plots with 4 replicates of 30 ft2 each at each site.

B1: PytH esterase (SEQ ID NO:255): Sphingobium wenxiniae (PytH) Esterase from recombinant Bacillus subtilis fermentation (protein, listed as Sphingobium wenxiniae)
chain: MTVTDIILIHGALNRGACYDAVVPLLEARGYRVHAPDLTGHTPGDGGHLSVVDMEHYTRPVADILARAEGQSILLGHSLGGASISWLAQHHPDKVAGLIYLTAVLTAPGITPETFVLPGEPNRGTPHALDLIQPVDEGRGLQADFSRLERLREVFMGDYPGEGMPPAEQFIQTQSTVPFGTPNPMEGRALEIPRLYIEALDDVVIPIAVQRQMQKEFPGPVAVVSLPASHAPYYSMPERLAEAIADFADAPAEYRQTATKAGPDRPAGADGGRADRADLP
In the case of B1, the “yield vs base seed treatment package (in words)” value in the experiment with corn [1] is “increased the yield”.

B2: PpII Lipase: free lipase from porcine pancreas Type II (PpII) (protein, UniProt P00591 1-450, looked up)
Pancreatic triacylglycerol …: SEVCFPRLGCFSDDAPWAGIVQRPLKILPWSPKDVDTRFLLYTNQNQNNYQELVADPSTITNSNFRMDRKTRFIIHGFIDKGEEDWLSNICKNLFKVESVNCICVDWKGGSRTGYTQASQNIRIVGAEVAYFVEVLKSSLGYSPSNVHVIGHSLGSHAAGEAGRRTNGTIERITGLDPAEPCFQGTPELVRLDPSDAKFVDVIHTDAAPIIPNLGFGMSQTVGHLDFFPNGGKQMPGCQKNILSQIVDIDGIWEGTRDFVACNHLRSYKYYADSILNPDGFAGFPCDSYNVFTANKCFPCPSEGCPQMGHYADRFPGKTNGVSQVFYLNTGDASNFARWRYKVSVTLSGKKVTGHILVSLFGNEGNSRQYEIYKGTLQPDNTHSDEFDSDVEVGDLQKVKFIWYNNNVINPTLPRVGASKITVERNDGKVYDFCSQETVREEVLLTLNPC
For the molecule B2, the “Dead Larva” value in experiment [2] (Table 46, lipases) came to 0. Also, in experiment [2] (Table 46), the “Larva Stage I” value turned out to be 2, the “Larva Stage II” value stood at 5, the “Larva Stage III” value was found to be 15 and the “Larva Stage IV” value amounted to 10. The molecule also showed a Diet consumption in experiment [3] (lipases, garden snail, n = 12, 12 days, dose per treatment in U/gr diet) of 0.82 gr. The “Dead Snails” value in experiment [3] (lipases, garden snail, number of n = 12, 12 days) came out at 0. In addition, the “food consumption (in words)” value in experiment [3] (text to Table 62, lipases in artificial diet, n = 12, 12 days) is on record as “consistent reduction in food consumption”.

B3: Esterase from Rhizopus oryzae: Rhizopus oryzae Esterase (carboxylesterase, SEQ ID NO:253) (protein, listed as Rhizopus oryzae)
chain: SDGGKVVAATTAQIQEFTKYAGIAATAYCRSVVPGNKWDCVQCQKWVPDGKIITTFTSLLSDTNGYVLRSDKQKTIYLVFRGTNSFRSAITDIVFNFSDYKPVKGAKVHAGFLSSYEQVVNDYFPVVQEQLTANPTYKVIVTGHSLGGAQALLAGMDLYQREPRLSPKNLSIFTVGGPRVGNPTFAYYVESTGIPFQRTAHKRDIVPHVPPQSFGFLHPGVESWIKSGTSNVQICTSEIETKDCSNSIVPFTSILDHLSYFDINEGSCL
modifications: Rhizopus cf. oryzae
For the molecule B3, the “Height as % of Control” value with corn [4] was 103.7%; in the experiment on corn [4] (listed as Rhizopus oryzae Esterase), “increase the growth rate of corn”.

B4: Geobacillus stearothermophilus esterase (SEQ ID NO:252): Esterase (carboxylesterase) from Geobacillus/Bacillus stearothermophilus (protein, listed as Bacillus stearothermophilus, listed as Geobacillus stearothermophilus)
chain: MKIVPPKPFFFEAGERAVLLLHGFTGNSADVRMLGRFLESKGYTCHAPIYKGHGVPPEELVHTGPDDWWQDVMNGYEFLKNKGYEKIAVAGLSLGGVFSLKLGYTVPIEGIVTMCAPMYIKSEETMYEGVLEYAREYKKREGKSEEQIEQEMEKFKQTPMKTLKALQELIADVRDHLDLIYAPTFVVQARHDEMINPDSANIIYNEIESPVKQIKWYEQSGHVITLDQEKDQLHEDIYAFLESLDW
Turning to B4, in the experiment with soybean [5], the “yield vs base seed treatment package (in words)” value was “increased the yield”.

B5: Feruloyl Esterase (SEQ ID NO:91): Beauveria bassiana Feruloyl Esterase A2 (protein, listed as Beauveria bassiana)
chain: MLSLLGFLGFAALAAAAPVRDQAFIPRTLVNRSIYDKLALYAGYTQLSNTGICARPSVPGVLYQFVESKDTDTQVSIWKVDAYKEFVIAIPGTSSARDNETNFDFALVPYQADNVRCPSCRVHKGYQAAWRSVMKQVQGNLTNLLGIHPDYTVTLTGHSLGGGLVSIAFPTLRNGPYNVTQAYTYGQPRAGNGAFANYVDGISGASDKEAGIFYRVTHANDLIPKLPPGIFGYKHSRTEYWESKPSMDNAASTYRCYGQEPADCNRNATGIDSKVHVTYAGMNVTCNKS
modifications: Feruloyl Esterase A2
Take B5: the “yield vs base seed treatment package (in words)” value in the experiment with soybean [6] was “increased the yield”.
